Measurements: US20100322948A1, “Bone morphogenetic protein (BMP)-binding domains of proteins of the repulsive guidance molecule (RGM) protein family and functional fragments thereof, and use of same” (ABBOTT GMBH & CO. KG, priority 2007, published 2010)
Entries after “also recorded” stand apart in the source; their conditions may differ.

Experiments:
NTera-2 cells = assay: Neurite growth test using NTera-2 cells (test method 2); format: cell-based, human; details: FIG. 7B
Excerpt: Test Method 2: Illustration of the Effect of RGM Peptides in the Neurite Growth Test, Using NTera-2 Cells
The human pluripotent cancer cell line NTera2 (DSMZ ACC527) is established as a cell culture model. Neurites grow from cell aggregates and form a corona of neurites around the particular aggregate.
NTera-2 cells are human embryonic teratocarcinoma cells. A carcinoma is a cancerous tumor, whereas a teratoma or teratocarcinoma is a mixed tumor of the germ cells composed of various differentiated and undifferentiated tissues, and therefore, the same as for the SH-SY5Y culture, comprises a heterogeneous population. The tumor is usually present in an encapsulated form in the various types, such as hair, skin, teeth, muscle, and nerve tissue. The tumors typically originate in the ovaries, testes, abdominal cavity, or brain. The cell line was cloned from the Tera-2 line, obtained from a metastatic teratocarcinoma in a person.
NTera-2 cells are epithelial, adherently growing cells which form a monolayer. Due to the large number of granular particles which they contain, NTera-2 cells may be easily differentiated from the other cells. The cells were cultivated by 1:5 splitting twice a week. The cells of this mixed culture may be differentiated using retinoic acid in neuronal cells.
Culture Medium Fur Growth […]
In order to differentiate the cells it was necessary to introduce antibiotic into the culture medium of the cell line due to the fact that the cells remained in the same culture flask for three weeks. Previously, the undifferentiated culture had been detrypsinated and the cell count determined using a Neubauer counting chamber. […] 25 μL retinoic acid (10 μM) was readded to the medium under dim light conditions. […]
The culture was stored in an incubator at 37° C. with 5% CO2 gassing, and the medium was changed at the beginning and at the end of the week. […] After three weeks the cells were differentiated and were ready for use in experiments. […]
Different plate formats were used for the tests. For the isolation of protein, 6-well plates were necessary for recovering a sufficient quantity. […]

SH-SY5Y cells = assay: Neurite growth assay using SH-SY5Y cells (test method 1); format: cell-based, human; details: FIG. 7A
Excerpt: Test Method 1: Illustration of the Effect of RGM Peptides in the Neurite Growth Assay, Using SH-SY5Y Cells
SH-SY5Y cells are human neuroblastoma cells. Blastomas are embryonic tumors which originate during tissue and organ formation. The origin of the blastoma cells is frequently unknown, since in early embryonic states the differentiation of many cells is still premature; i.e., the blastoma cells are a heterogeneous cell population. The cells of a neuroblastoma, referred to as neuroblasts, originate from the neural crest (structure of the embryonic state) from the autonomous nerve tissue, and are practically arrested in an immature stage. The cells in the present case originated from a clonal subculture of the neuroepitheliomal cell line SK-N-SH which were isolated in 1970 in a bone marrow biopsy of a child with metastases of the neuroblastomas.
Culture Medium for SH-SY5Y Cells (ECACC No. 94030304)
The medium was sterile-filtered using a Nunc 500-mL filter, and was stored in a refrigerator at 4° C. until used. Before use, the medium was heated to 37° C. in a water bath.
SH-SY5Y cells are epithelial, neuron-like cells which slowly adherently grow in a monolayer and never attain a confluence of 100% (maximum 80%). The cell culture was split 1:3 two times per week. Isolation of the cells requires incubation with trypsin for 1-3 minutes in an incubator.
Since this is a population of still immature precursor cells, it is possible to differentiate the cells using retinoic acid, so that a certain percentage of the cells acquire neurite-like extensions. For this purpose the culture was incubated in the medium with 10 μM retinoic acid directly in the culture dish or flask, depending on the test, for 3 days.
Microtiter plates (96-well) (containing collagen I-coated plates) were additionally coated with the hRGM A fragments. After washing two times with PBS the cells were seeded. […] In the quantitative analysis the SH-SY5Y cells grown on hRGM A fragments were compared to SH-SY5Y grown on collagen I alone. The neurite length of the cells was automatically measured and used for the analysis. […]

B1: fragment #786: Fc fusion protein of human RGM A amino acids 47-168 (protein)
chain: PCKILKCNSEFWSATSGSHAPASDDTPEFCAALRSYALCTRRTARTCRGDLAYHSAVHGIEDLMSQHNCSKDGPTSQPRLRTLPPAGDSQERSDSPEICHYEKSFHKHSATPNYTHCGLFGD
modifications: left off: small tags and cut ends; a dimerising Fc or GST
- inhibition of neurite growth (NTera-2 cells): inhibit the neurite growth
- inhibitory activity in neurite growth test compared with 316-386-Fc (NTera-2 cells; listed as 47-168-Fc): much stronger effect; also recorded: significantly higher activity
- inhibition of neurite growth (SH-SY5Y cells): inhibit the neurite growth
- inhibitory activity in neurite growth test compared with 316-386-Fc (SH-SY5Y cells; listed as 47-168-Fc): much stronger effect; also recorded: significantly higher activity
